From article PMC8065039

Biological target: CA521^FALA (human IgG4 monoclonal antibody with the F234A/L235A mutation) (human (from human antibody transgenic mice))
Assay: BLI

CA521^FALA (human IgG4 monoclonal antibody with the F234A/L235A mutation) (human (from human antibody transgenic mice)), sequence (heavy, as listed by the source, chain 1 of 2): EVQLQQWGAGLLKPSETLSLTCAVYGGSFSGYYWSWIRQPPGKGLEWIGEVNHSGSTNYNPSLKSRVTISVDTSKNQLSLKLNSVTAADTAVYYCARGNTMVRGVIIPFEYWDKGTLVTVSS
CA521^FALA (human IgG4 monoclonal antibody with the F234A/L235A mutation) (human (from human antibody transgenic mice)), sequence (light, as listed by the source, chain 2 of 2): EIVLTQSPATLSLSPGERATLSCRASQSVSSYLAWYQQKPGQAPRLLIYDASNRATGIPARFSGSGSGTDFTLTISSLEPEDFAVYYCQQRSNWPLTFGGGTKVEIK

Substance: SARS-CoV-2 RBD protein (40592-V05H, Sino Biological) (from UniProt P0DTC2) (domain or fragment)
- Kd: 0.698 nM
